Assay results from the supplement of paper PMC11246515.
± gives the standard deviation of the averaged measurements.

Assay: total protein half-life in vivo (active degradation + dilution); higher = more stable protein
[1] = E. coli NCM3722 delta-clpP delta-lon delta-hslV, growth: N-lim chemostat, doubling time 6 h
[2] = E. coli NCM3722 delta-hslV, growth: N-lim chemostat, doubling time 6 h
[3] = E. coli NCM3722 delta-lon, growth: N-lim chemostat, doubling time 6 h
[4] = E. coli NCM3722 delta-smpB, growth: N-lim chemostat, doubling time 6 h
[5] = wild type E. coli NCM3722, growth: C-lim chemostat, doubling time 3 h
[6] = wild type E. coli NCM3722, growth: C-lim chemostat, doubling time 6 h
[7] = wild type E. coli NCM3722, growth: C-lim chemostat, doubling time 12 h
[8] = wild type E. coli NCM3722, growth: N-lim chemostat, doubling time 6 h
[9] = wild type E. coli NCM3722, growth: N-lim chemostat, doubling time 12 h
[10] = wild type E. coli NCM3722, growth: P-lim chemostat, doubling time 6 h
[11] = wild type E. coli NCM3722, growth: P-lim chemostat, doubling time 12 h
[12] = E. coli NCM3722 delta-clpP, growth: N-lim chemostat, doubling time 6 h

Row | Sequence | total protein half-life in vivo [1] | total protein half-life in vivo [2] | total protein half-life in vivo [3] | total protein half-life in vivo [4] | total protein half-life in vivo [5] | total protein half-life in vivo [6] | total protein half-life in vivo [7] | total protein half-life in vivo [8] | total protein half-life in vivo [9] | total protein half-life in vivo [10] | total protein half-life in vivo [11] | total protein half-life in vivo [12]
1 | MRKGCFGLVSLVLLLLVGCRSHPEIPVNDEQSLVMESSLLAAGISAEKPFLSTSDIQPSASSTLYNERQEPVTVHYRFYWYDARGLEMHPLERPRSVTIPAHSAVTLYGSANFLGAHKVRLYLYL | 5.4 ± 0.33 h | 5.89 ± 0.42 h | 5.86 ± 0.36 h | 5.34 ± 0.22 h | 2.84 h | 5.52 h | 9.893 ± 0.025 h | 5.33 h | 10.1 h | 5.79 h | 11.8 ± 0.32 h | 
2 | MRKIALILAMLLIPCVSFAGLLGSSSSTTPVSKEYKQQLMGSPVYIQIFKEERTLDLYVKMGEQYQLLDSYKICKYSGGLGPKQRQGDFKSPEGFYSVQRNQLKPDSRYYKAINIGFPNAYDRAHGYEGKYLMIHGDCVSIGCYAMTNQGIDEIFQFVTGALVFGQPSVQVSIYPFRMTDANMKRHKYSNFKDFWEQLKPGYDYFEQTRKPPTVSVVNGRYVVSKPLSHEVVQPQLASNYTLPEAK [P0AA99] | 0.797 h | 0.844 h | 0.64 h | 0.689 ± 0.063 h | 0.313 ± 0.18 h | 1.37 h | 1.81 h | 0.909 ± 0.048 h | 1.54 ± 0.73 h | 0.858 ± 0.34 h | 1.45 ± 0.56 h | 0.657 ± 0.077 h
3 | MRKIIHVDMDCFFAAVEMRDNPALRDIPIAIGGSRERRGVISTANYPARKFGVRSAMPTGMALKLCPHLTLLPGRFDAYKEASNHIREIFSRYTSRIEPLSLDEAYLDVTDSVHCHGSATLIAQEIRQTIFNELQLTASAGVAPVKFLAKIASDMNKPNGQFVITPAEVPAFLQTLPLAKIPGVGKVSAAKLEAMGLRTCGDVQKCDLVMLLKRFGKFGRILWERSQGIDERDVNSERLRKSVGVERTMAEDIHHWSECEAIIERLYPELERRLAKVKPDLLIARQGVKLKFDDFQQTTQEHVWPRLNKADLIATARKTWDERRGGRGVRLVGLHVTLLDPQMERQLVLGL | 4.16 ± 0.15 h |  |  |  |  |  |  |  |  |  |  | 
4 | MRKIKGLRWYMIALVTLGTVLGYLTRNTVAAAAPTLMEELNISTQQYSYIIAAYSAAYTVMQPVAGYVLDVLGTKIGYAMFAVLWAVFCGATALAGSWGGLAVARGAVGAAEAAMIPAGLKASSEWFPAKERSIAVGYFNVGSSIGAMIAPPLVVWAIVMHSWQMAFIISGALSFIWAMAWLIFYKHPRDQKHLTDEERDYIINGQEAQHQVSTAKKMSVGQILRNRQFWGIALPRFLAEPAWGTFNAWIPLFMFKVYGFNLKEIAMFAWMPMLFADLGCILGGYLPPLFQRWFGVNLIVSRKMVVTLGAVLMIGPGMIGLFTNPYVAIMLLCIGGFAHQALSGALITLSSDVFGRNEVATANGLTGMSAWLASTLFALVVGALADTIGFSPLFAVLAVFDLLGALVIWTVLQNKPAIEVAQETHNDPAPQH [P0AA78] |  |  |  |  |  | 5.93 ± 0.18 h | 9.36 ± 0.82 h |  |  |  |  | 
5 | MRKITQAISAVCLLFALNSSAVALASSPSPLNPGTNVARLAEQAPIHWVSVAQIENSLAGRPPMAVGFDIDDTVLFSSPGFWRGKKTFSPESEDYLKNPVFWEKMNNGWDEFSIPKEVARQLIDMHVRRGDAIFFVTGRSPTKTETVSKTLADNFHIPATNMNPVIFAGDKPGQNTKSQWLQDKNIRIFYGDSDNDITAARDVGARGIRILRASNSTYKPLPQAGAFGEEVIVNSEY [P0AE22] | 6.66 ± 1.4 h | 6.31 ± 0.14 h |  | 5.83 ± 0.2 h | 3.637 ± 0.033 h |  | 11.7 ± 2.4 h | 5.79 ± 0.22 h | > 16 h | 6.42 ± 0.61 h | 13.2 ± 0.27 h | 
6 | MRKKIEMSLIKSPANGVVIKRKISDGLKEIVSLKEKILLETTAKIQSIEEKREEKFIQGYYDGYTKGIIDEMDNFIPLISLLCSELEKKRINMINDLKSILLKPSEEVDVFIKIFESWVTKLPSISGPVNLHIPTSFKDKSLEVESYFVDKSIWNVHITFHDDKRFVFFTDQFIAEFSPQEFVDNCEQYLINNHCFSPDKVNEICEQARHYLVEKMFETHSLDMNNSVLASPEDL |  |  |  |  |  |  |  |  | > 16 h |  |  | 
7 | MRKLTALFVASTLALGAANLAHAADTTTAAPADAKPMMHHKGKFGPHQDMMFKDLNLTDAQKQQIREIMKGQRDQMKRPPLEERRAMHDIIASDTFDKVKAEAQIAKMEEQRKANMLAHMETQNKIYNILTPEQKKQFNANFEKRLTERPAAKGKMPATAE |  |  | 4.86 ± 2.6 h | 4.4 ± 1.1 h | 2.63 h | 4.54 ± 0.28 h | 8.06 ± 4.6 h |  | 1.93 h | 3.86 ± 0.27 h | 6.54 ± 0.43 h | 3.6 h
8 | MRKQWLGICIAAGMLAACTSDDGQQQTVSVPQPAVCNGPIVEISGADPRFEPLNATANQDYQRDGKSYKIVQDPSRFSQAGLAAIYDAEPGSNLTASGEAFDPTQLTAAHPTLPIPSYARITNLANGRMIVVRINDRGPYGNDRVISLSRAAADRLNTSNNTKVRIDPIIVAQDGSLSGPGMACTTVAKQTYALPAPPDLSGGAGTSSVSGPQGDILPVSNSTLKSEDPTGAPVTSSGFLGAPTTLAPGVLEGSEPTPAPQPVVTAPSTTPATSPAMVTPQAVSQSASGNFMVQVGAVSDQARAQQYQQQLGQKFGVPGRVTQNGAVWRIQLGPFASKAEASTLQQRLQTEAQLQSFITTAQ | 5.56 ± 0.12 h | 6.5 ± 0.56 h | 6.29 ± 0.38 h | 5.65 ± 0.12 h | 3.1 ± 0.15 h | 5.89 ± 0.42 h |  | 6.17 ± 0.07 h | 13.4 ± 2.2 h |  | 12.38 ± 0.038 h | 5.78 ± 0.37 h
9 | MRLEFSIYRYNPDVDDAPRMQDYTLEADEGRDMMLLDALIQLKEKDPSLSFRRSCREGVCGSDGLNMNGKNGLACITPISALNQPGKKIVIRPLPGLPVIRDLVVDMGQFYAQYEKIKPYLLNNGQNPPAREHLQMPEQREKLDGLYECILCACCSTSCPSFWWNPDKFIGPAGLLAAYRFLIDSRDTETDSRLDGLSDAFSVFRCHSIMNCVSVCPKGLNPTRAIGHIKSMLLQRNA | 6.38 ± 1.4 h | 5.6 ± 0.19 h | 5.16 ± 1.2 h | 5.06 ± 0.28 h | 3.17 ± 0.81 h | 6.28 ± 0.13 h | 11.9 ± 0.33 h | 5.22 ± 0.7 h | 10.7 ± 0.97 h | 5.138 ± 0.038 h | 10.5 ± 0.14 h | 5.1 ± 0.12 h
